The text below walks through data of EP4810611A2.

For experiment [1], the target named is TRBV9+TRAV38 antigen. In words: BLI (OctetRed 96), antigen on AR2G sensors, antibody 126-2 nM, 1:1 model; run 3.
Experiment [2] addresses TRBV9+TRAV26 antigen. Described as above.
In experiment [3] the target is TRBV9+TRAV38 antigen. Nature of the experiment: BLI (OctetRed 96), antigen on AR2G sensors, antibody 126-2 nM, 1:1 model; run 1.
The target of experiment [4] is TRBV9+TRAV26 antigen. Described as above.
The target of experiment [5] is TRBV9+TRAV38 antigen. In words: BLI (OctetRed 96), antigen on AR2G sensors, antibody 126-2 nM, 1:1 model; run 2.
The target in experiment [6] is TRBV9+TRAV26 antigen. The description is as above.
The target in experiment [7] is human T cell receptor with a beta-chain of the TRBV9 family, on T lymphocytes of the mononuclear fraction of human blood (human). In words: flow cytometry, FITC-labelled antibody on human blood mononuclear cells, 5 and 0.5 ng/µl. For orientation: In flow cytometry, cells or beads pass a laser one at a time.
Sequence of human T cell receptor with a beta-chain of the TRBV9 family, on T lymphocytes of the mononuclear fraction of human blood (human) (A0A0B4J1U6 22-114): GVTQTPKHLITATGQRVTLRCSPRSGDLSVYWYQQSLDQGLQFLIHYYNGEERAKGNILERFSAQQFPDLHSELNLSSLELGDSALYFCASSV

Substitutions are numbered along the chain they refer to. A value given as a limit tells only on which side of the number the result lay.

B1: anti-TRBV9-1 monoclonal antibody (antibody, human IgG1, kappa, V domains shown)
VH: QIQLVQSGPELREPGESVKLSCKASGYTFTDYLVHWVKQAPGKGLKWMGWINTYTGTPTYADDFEGRFVFSLEASASTANLQISNLKNEDTATYFCARSWRRGLRGLGFDYWGQGVFVTVSS
VL: DVQMTQSPYNLAASPGESVSINCKASKSINKYLAWYQQKPGKPNKLLIYDGSTLQSGIPSRFSGSGSGTDFTLTIRGLEPEDFGLYYCQQHNEYPPTFGAGTKLELKR
What is called Kd is the constant that tells how readily two partners part at equilibrium. Read a low Kd as higher affinity. In general, koff refers to a measure of how fast the partners let go of each other. Read a high koff as a short-lived complex. One may read the kon as the second-order rate constant of association. For B1, the Kd in the experiment with TRBV9+TRAV38 antigen [1] is 0.529 nM; with TRBV9+TRAV26 antigen [2], 0.204 nM; with TRBV9+TRAV38 antigen [3] it was 0.414 nM; with TRBV9+TRAV26 antigen [4], 0.22 nM; with TRBV9+TRAV38 antigen [5], 0.365 nM; with TRBV9+TRAV26 antigen [6], 0.278 nM. Moreover, the koff with TRBV9+TRAV38 antigen [1] turned out to be 0.000196 s⁻¹; with TRBV9+TRAV26 antigen [2], 0.000114 s⁻¹; with TRBV9+TRAV38 antigen [3], 0.000183 s⁻¹; with TRBV9+TRAV26 antigen [4], 0.000113 s⁻¹; with TRBV9+TRAV38 antigen [5] it was 0.000205 s⁻¹; with TRBV9+TRAV26 antigen [6], 0.000183 s⁻¹. The kon with TRBV9+TRAV38 antigen [1] turned out to be 371000 M⁻¹ s⁻¹; with TRBV9+TRAV26 antigen [2], 559000 M⁻¹ s⁻¹; with TRBV9+TRAV38 antigen [3] it was 441000 M⁻¹ s⁻¹; with TRBV9+TRAV26 antigen [4] it was 515000 M⁻¹ s⁻¹; in the experiment with TRBV9+TRAV38 antigen [5] it was 562000 M⁻¹ s⁻¹; with TRBV9+TRAV26 antigen [6] it was 658000 M⁻¹ s⁻¹.

B2: anti-TRBV9-3 monoclonal antibody (antibody, human IgG1, kappa, V domains shown)
VH: B1 VH with L104I
VL: B1 VL
As to B2, the Kd in the experiment with TRBV9+TRAV38 antigen [3] was 0.311 nM; in the experiment with TRBV9+TRAV26 antigen [4], 0.319 nM; with TRBV9+TRAV38 antigen [5], 0.4 nM; with TRBV9+TRAV26 antigen [6] it was 0.582 nM. Besides, the koff with TRBV9+TRAV38 antigen [3] is 9.61e-05 s⁻¹; with TRBV9+TRAV26 antigen [4] it was 9.16e-05 s⁻¹; with TRBV9+TRAV38 antigen [5], 9.16e-05 s⁻¹; in the experiment with TRBV9+TRAV26 antigen [6], 9.8e-05 s⁻¹. Also, the kon was determined as 309000 M⁻¹ s⁻¹ with TRBV9+TRAV38 antigen [3], 287000 M⁻¹ s⁻¹ in the experiment with TRBV9+TRAV26 antigen [4], 229000 M⁻¹ s⁻¹ with TRBV9+TRAV38 antigen [5] and 168000 M⁻¹ s⁻¹ with TRBV9+TRAV26 antigen [6].

B3: anti-TRBV9-2 monoclonal antibody (antibody, human IgG1, kappa, V domains shown)
VH: B1 VH with L107I
VL: B1 VL
Molecule B3 yielded a staining, share of the CD3-positive fraction in experiment [7] of 2.9%. In addition, the Kd with TRBV9+TRAV38 antigen [3] was under 0.001 nM; in the experiment with TRBV9+TRAV26 antigen [4], 0.0135 nM; with TRBV9+TRAV38 antigen [5], under 0.001 nM; in the experiment with TRBV9+TRAV26 antigen [6], under 0.001 nM. Besides, the koff in the experiment with TRBV9+TRAV38 antigen [3] was under 1e-07 s⁻¹; with TRBV9+TRAV26 antigen [4] it was 6.02e-06 s⁻¹; with TRBV9+TRAV38 antigen [5], under 1e-07 s⁻¹; with TRBV9+TRAV26 antigen [6] it was under 1e-07 s⁻¹. The kon worked out at 397000 M⁻¹ s⁻¹ in the experiment with TRBV9+TRAV38 antigen [3], 447000 M⁻¹ s⁻¹ with TRBV9+TRAV26 antigen [4], 289000 M⁻¹ s⁻¹ with TRBV9+TRAV38 antigen [5] and 381000 M⁻¹ s⁻¹ with TRBV9+TRAV26 antigen [6].

B4: anti-TRBV9-4 monoclonal antibody (antibody, human IgG1, kappa, V domains shown)
VH: B1 VH with L104I, L107I
VL: B1 VL
For the molecule B4, the Kd in the experiment with TRBV9+TRAV38 antigen [3], with TRBV9+TRAV26 antigen [4], in the experiment with TRBV9+TRAV38 antigen [5] and in the experiment with TRBV9+TRAV26 antigen [6] was under 0.001 nM each time. Further, the koff with TRBV9+TRAV38 antigen [3], with TRBV9+TRAV26 antigen [4], in the experiment with TRBV9+TRAV38 antigen [5] and with TRBV9+TRAV26 antigen [6] was under 1e-07 s⁻¹ throughout. The kon came out at 713000 M⁻¹ s⁻¹ in the experiment with TRBV9+TRAV38 antigen [3], 865000 M⁻¹ s⁻¹ with TRBV9+TRAV26 antigen [4], 476000 M⁻¹ s⁻¹ with TRBV9+TRAV38 antigen [5] and 579000 M⁻¹ s⁻¹ with TRBV9+TRAV26 antigen [6].
